Measured values reported in patent publication US20050232926A1, “Antibodies specific for cancer associated antigen SM5-1 and uses thereof” (Oncomax Acquisition Corp., priority 2003, published 2005).

B1: chSM5-1: mouse-human chimeric antibody with mSM5-1 variable regions (SEQ ID NO:3, 4) and human constant regions (antibody, V domains shown)
VH: EVQLQQSGPELVKPGASVKMSCKASGYTFTSYVMHWVKQKPGQGLDWIGYIVPYNDGTKYNEKFKGKATLTSDKSSSTAYMELSRLTSEDSAVYYCVYGSRYDWYLDVWGAGTTVTVSS
VL: NIMMTQSPSSLAVSAGEKVTMSCKSSQSVLYSSNQKNYLAWYQQKPGQSPKLLIYWASTRESGVPDRFTGSGSGTDFTLTISSVQAEDLAVYYCHQYFSSYTFGGGTKLEIKR
modifications: human constant regions; Mus Musculus
B2: humanized anti-SM5-1 antibody (ReSM5-1) (antibody, V domains shown)
VH: QVQLVQSGGGVVQPGRSLRLSCKASGYTFTSYVMHWVRQAPGKGLEWIGYIVPYNDGTKYNEKFKGRFTISSDKSKSTAFLQMDSLRPEDTAVYYCARGSRYDWYLDYWGQGTPVTVSS
VL: NIMMTQSPSSLSASVGDRVTITCKSSQSVLYSSNQKNYLAWYQQTPGKAPKLLIYWASTRESGVPSRFSGSGSGTDYTFTISSLQPEDIATYYCHQYFSSYTFGQGTKLQITR

Tests used:
[1] = system: QYC cells; assay: In vitro proliferation of QYC cells with chimeric and humanized antibody (PMS:MTS, seven days); type: cell-based, human; conditions: serial antibody dilutions, FIG. 6
Experimental: The cell lines used in viability examination was QYC cells which were obtained from Shanghai International Joint Cancer Institute. The QYC cells was cultured in 25 cm^2 flask with RPMI-1640/DMEM (V:V=1:1, GIBCO) containing 10% FBS (GIBCO).
The above cells were digested with 0.05% trypsin and in 0.02% EDTA, and cell number was counted and adjusted to 6×10^4/ml in RPMI-1640/DMEM culture medium containing 10% FCS.
The assay was performed in 96-well plate. The anti-human SM5-1 humanized and chimeric antibody described above were diluted with RPMI-1640/DMEM containing 10% FCS. The antibody to be tested (20 mg/ml) was diluted to […] in serial dilution, with each dilution no more than 10-fold. The antibody were further diluted 1:2 serially with RPMI-1640/DMEM containing 10% FCS for fourteen serial concentrations in 96-well plate, leaving 100 μl/well. Cells (100 μl) were added into each well containing 200 μl various concentration of antibody or 200 μl of RPMI-1640/DMEM containing 10% FCS as control. In order to prevent edge effect of the plate, wells that were at the edge of the plate were not used for the assay but added 200 μl PBS. The plate was incubated at 37° C. with 7% CO2 for seven days.
Color developing reagent PMS:MTS (1:20) (20 μl) was added into each well of the 96-well plate. The plate without the lid was then incubated for 3 h.
The 96-well plate was read at OD490 nm. […]

[2] = system: QYC cells; assay: Antibody-dependent cell mediated cytotoxicity (ADCC); type: cell-based, human; conditions: PBL effector to target ratio 20:1, 7 h, FIG. 7
Experimental: Venous blood was taken sterilely from healthy donor and put into sterile 15 ml centrifuge tube containing 20 U/ml heparin. The solution was carefully mixed and equal volume of sterilized PBS was added to dilute the blood.
In a 15 ml centrifuge tube, 6 ml room temperature pre-warmed 100% lymphocytes isolation fluid (obtained from CACS, Cellular Biology Institute) was added. Along the tube wall of the tilted tube, 6 ml diluted anti-coagulation peripheral blood was added slowly into the tube without damaging the interface.
The tube was centrifuged at 20° C., 800 g for 30 min with brake turned off. After the centrifuge, three layers were formed. The three layers (from above to the bottom) were blood plasma layer, cell separation liquid layer, red and granular cell layer. A white frosted glass-like layer between the plasma layer and cell separation liquid layer was the layer containing lymphocytes and mononuclear cells. This white layer was taken out using a pipette and put into another 15 ml sterile centrifuge tube. PBS was added into the centrifuge tube to dilute the PBL suspension and then centrifuged at 200 g for 5 min. The pellet was washed 2 times with PBS. […]
QYC cells at the logistically growing stage were taken out from incubator. […] Cells were counted, and the concentration was adjusted to 3×10^5/ml. […]
Cytotoxicity Detection Kit by Roche's Corporation was used. […] OD was read at 490 nm.

[3] = target: human SM5-1 antigen (human); assay: BIAcore (SPR), method of Karlsson et al.; antigen preparation and format not stated
[4] = system: hepatocelluer carcinoma cell line QYC; assay: Antigen binding activity by FCM; design: species or system human; conditions: compared with chSM5-1
Experimental: The humanized VL and VH were cloned into pMG18-3K expression vector and was expressed transiently in COS cells, yielding humanized version. Humanized antibody in COS cell culture supernatant was quantitated by ELISA and the binding of this version to hepatocelluer carcinoma cell line QYC was determined by FCM. […] The important FR residues that may have influences on binding activity were analyzed and the backmutation assay was carried out. […] The humanized version was designated as ReSM5-1 and its amino acid sequence and nucleotide sequence of both the heavy chain and the light chain shown in Table 3 below.

[5] = system: SM5-1 antigen; assay: Competition binding assay

Molecule	in vitro proliferation of QYC cells [1]	anti-neoplasm effect via ADCC [2]	Kd [3]	antigen binding activity [4]	avidity [5]
B1	significantly inhibited in vitro proliferation of QYC cells	induced the apoptosis and inhibit the growth of tumor cells through ADCC pathway	–	–	–
B2	significantly inhibited in vitro proliferation of QYC cells	induced the apoptosis and inhibit the growth of tumor cells through ADCC pathway	9.31 nM	same antigen binding activity as chSM5-1	equivalent avidity as the murine SM5-1 or chimeric SM5-1 antibody
